Laboratory results published in patent US20250043002A1.

What was measured:
[1] = target: human CD28 expressed with a C-terminal murine Fc tag (hCD28.mFc) (human); experiment: SPR Biacore 25 C, hCD28.mFc captured by anti-mFc, antibody injected
[2] = target: human PD-L1 expressed with a C-terminal myc-myc-hexahistidine tag (hPD-L1.mmH) (human); experiment: SPR Biacore 25 C, antibody captured by anti-hFc, hPD-L1.mmH injected
[3] = target: hPD-L1-mFc: hPD-L1 extracellular domain (amino acids F19-T239) expressed with the Fc portion of mouse IgG2a at the C-terminus (human; mouse) (UniProt Q9NZQ7); experiment: blocking ELISA, 0.7 nM hPD-L1-mFc on plate-coated hPD1-hFc
Chain of hPD-L1-mFc: hPD-L1 extracellular domain (amino acids F19-T239) expressed with the Fc portion of mouse IgG2a at the C-terminus (human; mouse) (Q9NZQ7 19-239 limits assumed): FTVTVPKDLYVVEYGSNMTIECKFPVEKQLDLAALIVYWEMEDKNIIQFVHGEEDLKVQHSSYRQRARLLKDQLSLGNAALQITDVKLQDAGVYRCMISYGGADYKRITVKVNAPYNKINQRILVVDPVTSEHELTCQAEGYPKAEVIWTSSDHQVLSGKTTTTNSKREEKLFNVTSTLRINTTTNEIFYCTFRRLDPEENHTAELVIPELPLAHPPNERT

Chain of human PD-L1 expressed with a C-terminal myc-myc-hexahistidine tag (hPD-L1.mmH) (human) (chain, as listed by the source limits assumed): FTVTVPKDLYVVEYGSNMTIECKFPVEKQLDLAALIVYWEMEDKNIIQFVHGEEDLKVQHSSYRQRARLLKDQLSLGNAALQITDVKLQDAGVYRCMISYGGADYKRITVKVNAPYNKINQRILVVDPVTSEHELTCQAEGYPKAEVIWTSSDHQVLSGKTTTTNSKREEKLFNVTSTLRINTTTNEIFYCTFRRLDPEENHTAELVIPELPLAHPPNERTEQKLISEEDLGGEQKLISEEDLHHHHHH

| Substance | 90 nM mAb Bind (RU) [1] | 30 nM hPD-L1.mmH Bind (RU) [2] | % Blocking at 100 nM mAb [3] |
| --- | --- | --- | --- |
| Isotype Control (antibody) | -4.3 RU | 0.5 RU |  |
| Isotype control 1 (antibody) |  |  | 1% |
| Isotype control 2 (antibody) |  |  | 1% |
| Isotype control 3 (antibody) |  |  | 4% |
